Residue numbers refer to the chain shown, from its start.
Key:
[1] = biological target: T1, cynomolgus (macaca fascicularis) CD39 on CHO cells (cynomolgus (macaca fascicularis), UniProt A0A7N9DGH8 1-510); assay: flow cytometry titration on CHO cells expressing cynomolgus CD39 (panel CHO-cyCD39)
T1 construct: whole, on cells; also called CHO-cyCD39; cynomolgus CD39
T1 sequence: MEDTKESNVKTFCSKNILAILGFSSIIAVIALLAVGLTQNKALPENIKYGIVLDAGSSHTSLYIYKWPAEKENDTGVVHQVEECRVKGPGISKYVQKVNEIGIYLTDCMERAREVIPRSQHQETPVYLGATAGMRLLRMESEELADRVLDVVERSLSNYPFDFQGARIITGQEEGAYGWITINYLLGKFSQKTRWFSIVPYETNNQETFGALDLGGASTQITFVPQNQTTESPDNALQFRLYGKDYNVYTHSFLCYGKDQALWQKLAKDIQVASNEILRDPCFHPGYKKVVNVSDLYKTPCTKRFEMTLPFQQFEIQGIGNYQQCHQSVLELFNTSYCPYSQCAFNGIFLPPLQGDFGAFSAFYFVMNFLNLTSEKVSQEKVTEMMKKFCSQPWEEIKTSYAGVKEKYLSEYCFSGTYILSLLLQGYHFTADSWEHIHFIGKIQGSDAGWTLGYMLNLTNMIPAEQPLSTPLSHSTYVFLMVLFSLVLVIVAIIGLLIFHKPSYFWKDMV
Experimental: (§1) Cells were incubated with various concentration of unlabeled anti-CD39 antibody from 30 μg/ml to 5×10⁻⁴ μg/ml, for 30 minutes at 4° C. After washes, cells were incubated with Goat anti-mouse H+L labeled secondary antibody for 30 min at 4° C.

[2] = biological target: T2, human CD39 (NTPDase1, ENTPD1), membrane-bound, on cells (human, UniProt P49961 1-510); assay: cell-based or functional assay
T2 sequence: T1 sequence with I47V, Y94F, I221V, T230I, V329I, N368K, S391A, V489F, I490T

[3] = biological target: T3, CD39-M2 extracellular domain recombinant protein (soluble human CD39) (human, UniProt P49961 38-478); assay: cell-based or functional assay
T3 sequence: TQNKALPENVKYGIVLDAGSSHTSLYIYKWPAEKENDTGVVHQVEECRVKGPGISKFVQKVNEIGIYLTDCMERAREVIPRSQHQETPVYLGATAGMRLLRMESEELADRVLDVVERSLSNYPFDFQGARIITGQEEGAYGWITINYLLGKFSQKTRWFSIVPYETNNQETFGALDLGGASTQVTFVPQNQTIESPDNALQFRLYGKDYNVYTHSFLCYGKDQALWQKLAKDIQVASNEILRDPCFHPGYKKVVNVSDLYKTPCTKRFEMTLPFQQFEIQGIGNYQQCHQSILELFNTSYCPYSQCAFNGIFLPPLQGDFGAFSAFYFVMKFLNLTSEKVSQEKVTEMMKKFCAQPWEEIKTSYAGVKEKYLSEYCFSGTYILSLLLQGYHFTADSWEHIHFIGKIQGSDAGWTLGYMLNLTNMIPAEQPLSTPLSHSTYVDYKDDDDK

[4] = biological target: T4, Human CD39-L3, also known as NTPDase3 or ENTPD3 (human, UniProt O75355 44-485, limits assumed); assay: ELISA on coated recombinant human CD39-L3 (panel huCD39 L3)
T4 construct: Recombinant protein coated in ELISA
T4 sequence: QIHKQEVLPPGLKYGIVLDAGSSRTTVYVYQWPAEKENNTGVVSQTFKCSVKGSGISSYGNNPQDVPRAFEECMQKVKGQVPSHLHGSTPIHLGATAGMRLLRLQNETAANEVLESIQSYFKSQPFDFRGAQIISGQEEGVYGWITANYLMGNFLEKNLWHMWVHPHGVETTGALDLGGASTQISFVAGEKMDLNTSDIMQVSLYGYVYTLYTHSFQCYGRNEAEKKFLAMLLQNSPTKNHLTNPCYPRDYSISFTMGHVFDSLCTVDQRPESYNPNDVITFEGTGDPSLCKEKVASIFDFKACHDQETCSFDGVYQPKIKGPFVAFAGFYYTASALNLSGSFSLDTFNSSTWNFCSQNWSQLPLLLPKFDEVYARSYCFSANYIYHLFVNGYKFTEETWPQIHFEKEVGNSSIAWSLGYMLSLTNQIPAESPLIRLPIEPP
Experimental: Wells were washed in TBS Tween 20, and further saturated 2H at RT in TBS Blocking buffer. Dose range concentration of primary antibody was incubated in TBS blocking buffer for 2 h at RT. Wells were washed in TBS Tween 20. […] Optical density was measured on Enspire™ at OD=450.

[5] = biological target: T2, human CD39 (NTPDase1, ENTPD1), …; assay: flow cytometry titration on CHO cells expressing human CD39 (panel CHO-huCD39)
Experimental: as §1

B1: antibody I-394 (antibody, human IgG1, kappa, V domains shown)
VH: EVQLQQSGPELVKPGASVKMSCKASGYTFTDYNMHWVKQSHGRTLEWIGYIVPLNGGSTFNQKFKGRATLTVNTSSRTAYMELRSLTSEDSAAYYCARGGTRFAYWGQGTLVTVSA
VL: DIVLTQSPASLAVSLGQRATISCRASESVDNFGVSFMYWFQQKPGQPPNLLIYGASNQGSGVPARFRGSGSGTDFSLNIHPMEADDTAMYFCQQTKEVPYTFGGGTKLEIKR
EC50 (read off the curve) [1]: ~0.4 µg/mL | IC50 (inhibition of 50% of the enzymatic activity of CD39 expressed by 50,000 Ramos cells) [2]: 0.05 µg/mL | IC50, inhibition of the ATPase activity of soluble CD39 protein [3]: 0.003 µg/mL | binding result [4]: no binding (tested: about 50 µg/ml) | EC50 (read off the curve) [5]: ~0.2 µg/mL

Reference: US20190218308A1 (INNATE PHARMA, published 2019)
